Values of other authors in PMC4799752.

Target: transferrin receptor 2 (Homo sapiens) (UniProt Q9UP52)
Sequence of UniProt Q9UP52 (Q9UP52 whole entry): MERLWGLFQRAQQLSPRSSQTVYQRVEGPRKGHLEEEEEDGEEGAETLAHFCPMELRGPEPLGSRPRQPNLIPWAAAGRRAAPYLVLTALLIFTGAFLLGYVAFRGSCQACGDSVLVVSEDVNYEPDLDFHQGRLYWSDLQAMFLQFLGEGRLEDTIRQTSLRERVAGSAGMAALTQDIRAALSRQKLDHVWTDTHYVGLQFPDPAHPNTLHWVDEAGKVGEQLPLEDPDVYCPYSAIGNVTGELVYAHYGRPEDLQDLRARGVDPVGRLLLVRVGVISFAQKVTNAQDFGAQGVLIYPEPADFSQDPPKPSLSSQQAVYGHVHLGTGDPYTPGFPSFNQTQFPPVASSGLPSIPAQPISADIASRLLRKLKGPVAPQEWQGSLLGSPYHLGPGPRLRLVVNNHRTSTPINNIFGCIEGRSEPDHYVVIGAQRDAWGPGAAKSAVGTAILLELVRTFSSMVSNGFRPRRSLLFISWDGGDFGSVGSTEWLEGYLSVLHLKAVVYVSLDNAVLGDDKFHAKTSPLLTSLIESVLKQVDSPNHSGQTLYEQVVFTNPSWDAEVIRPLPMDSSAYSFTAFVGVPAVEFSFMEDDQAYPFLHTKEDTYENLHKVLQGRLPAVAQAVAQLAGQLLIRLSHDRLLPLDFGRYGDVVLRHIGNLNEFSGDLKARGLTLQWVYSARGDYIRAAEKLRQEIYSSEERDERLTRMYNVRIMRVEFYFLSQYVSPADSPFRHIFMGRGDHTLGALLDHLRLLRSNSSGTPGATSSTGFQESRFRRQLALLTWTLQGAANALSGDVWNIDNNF

Sequence of transferrin (P02787 20-698): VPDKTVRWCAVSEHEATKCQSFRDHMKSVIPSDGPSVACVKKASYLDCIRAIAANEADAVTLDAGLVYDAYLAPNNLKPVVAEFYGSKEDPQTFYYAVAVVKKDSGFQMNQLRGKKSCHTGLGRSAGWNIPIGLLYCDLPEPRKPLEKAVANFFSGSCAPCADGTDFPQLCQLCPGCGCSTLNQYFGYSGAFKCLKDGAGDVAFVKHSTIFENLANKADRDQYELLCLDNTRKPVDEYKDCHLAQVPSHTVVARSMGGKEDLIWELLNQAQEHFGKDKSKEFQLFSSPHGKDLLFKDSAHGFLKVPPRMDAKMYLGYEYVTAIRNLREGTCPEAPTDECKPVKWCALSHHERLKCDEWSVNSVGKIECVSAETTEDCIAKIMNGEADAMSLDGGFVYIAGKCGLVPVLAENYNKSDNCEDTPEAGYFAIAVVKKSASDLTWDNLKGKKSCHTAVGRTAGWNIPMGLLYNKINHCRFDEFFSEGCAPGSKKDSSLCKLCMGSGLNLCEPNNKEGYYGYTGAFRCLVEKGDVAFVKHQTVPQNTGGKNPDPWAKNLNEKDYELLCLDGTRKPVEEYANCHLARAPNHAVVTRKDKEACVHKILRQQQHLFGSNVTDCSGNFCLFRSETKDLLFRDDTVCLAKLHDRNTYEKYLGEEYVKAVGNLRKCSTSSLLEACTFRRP

Kd: 30 nM
Substance: transferrin (from UniProt P02787)
